How the values were obtained:
Assay type in all cases: biochemical
[1] = target: T1, iron-loaded abeta40 templates plaque complex (Homo sapiens, UniProt P00747); experiment: Proteolysis of plaque complexes assembled on iron-loaded abeta40 templates
T1 construct: Lys-Plasminogen (PLG); purchased Enzyme Research Laboratories (IN, USA)
Protocol: In order to verify the preceding results, such experiments are repeated using iron-loaded abeta40 templates for plaque complex formation. Proteins binding to the abeta40 templates appear to be cleared when they are treated with the same proteases.

[2] = system: iron loaded abeta42 aggregates mixed with CE proteins; experiment: Proteolysis of amyloid plaque complexes assembled on iron loaded abeta42 aggregates; conditions: 20 ng
Protocol: This example illustrates the use of the invention to evaluate the proteolytic degradation of the amyloid complexes. For example, iron loaded abeta42 aggregates are mixed with CE proteins, and the resulting template complexes are treated with five different serine proteases. More specifically, nine independent reactions are carried out with each containing 5.0 μg of the iron-loaded aggregates of abeta42 and 6.0 μg of the CE proteins. After incubation and washing, the complexes are suspended in 50 μl of PBS. The nine complexes are sub-divided into two groups, with six individual complexes comprising Group I and three complexes comprising Group II. In order to interrogate the role of the plasminogen (PLG) activation system, which is implicated in the catabolism of amyloid peptides as well as the pathobiology of amyloid diseases (Melchor J P et al, 2003; Van Nostrand W E et al, 1999; Kranenburg O, 2005), the Group II complexes are subjected to another cycle of binding with both PLG (0.5 μg) and BSA (0.5 μg) proteins. After binding and washing, the PLG and BSA bound plaques complexes are suspended in 50 μl of PBS.
For proteolysis analysis, five of the six Group I template complexes are incubated with 20 ng of each protease (plasnin, chymotrypsin, trypsin, proteinase K and urokinase). The remaining complex is used as a control without protease treatment. Among three complexes of the Group II containing PLG attached to them, one is treated with u-PA (20 ng), a second is treated with t-PA (20 ng) and the third complex is used as a control without protease treatment. All these plaque complexes are incubated at 37° C. for 1 hr and after every 15 min, the tubes are gently tapped in order to encourage mixing. After washing, both the proteases-treated and control plaque complexes are suspended in 20 μl PBS. The complexes are boiled for 10 min with sample solubilizing buffer and loaded in to 4-20% gradient SDS-PAGE. Further, the gels are processed for silver staining and the results are documented for further analysis.

[3] = target: T2, pre-assembled amyloid plaque like complexes (iron-loaded abeta42 templates) (Homo sapiens, UniProt P00747); experiment: Dissolution of pre-assembled amyloid plaque like complexes; conditions: 20 ng, 37° C., 1 hr
T2 construct: Lys-Plasminogen (PLG); purchased Enzyme Research Laboratories (IN, USA)
Protocol: In order to identify lead compounds able to dissolve the pre-assembled amyloid plaque like complexes, the preceding experiments are repeated to assemble complexes in three cycles using the iron-loaded abeta42 templates. Then, 50 μl of the resulting complexes is incubated with test compound/s (50 ng to 1 μg) for 1 hr at 37° C. followed by washing and analysis of the complexes for their dissolution. For example, 50 μl of the pre-assembled complexes is mixed with u-PA or t-PA (20 ng) at 37° C. for 1 hr followed by washing and protein estimation or gel analysis of the resultant complexes. […] This approach is also useful to optimize u-PA (PGN54) molecule for use as a therapeutic lead to treat patients with advanced amyloid diseases such as Alzheimer. Reducing the amyloid plaque burden or plaque build-up in the cerebral arteries would greatly improve or reverse the pathological symptoms associated with the amyloid diseases. In addition, to test the hypothesis of amyloid plaque burden reduction as an effective strategy, optimized u-PA or other plasminogen activators are used in the animal models of Alzheimer's disease.

[4] = system: thrombus generated from the in vitro assembled plaques complexes; experiment: Thrombolytic assay with PLG cascade proteins; conditions: thrombus from cholesterol, lipids, CP and CO complexes
Protocol: To examine this, both PLG and PLG activators are used to target these clots. Thrombolytic assays are carried out in 100 μl reaction containing thrombus, generated from 100 μl of aggregates or plaque complexes, 1 μg of PLG and 20 ng of u-PA or t-PA in PBS buffer. The reactions are incubated at 37° C. for 1 hr and after every 15 min the tubes are gently tapped to mix the contents. After 1 hr incubation, 1 ml of PBS is added to all the tubes and the samples are visually examined for dissolution of the thrombus.
The thrombus generated from the cholesterol, lipids, CP, and CO complexes are incubated separately with PLG, u-PA and t-PA to examine whether these proteins individually could dissolve the clots.
This could be due to the inhibition of u-PA by the PAI-1 thereby preventing the activation of the PLG. In the next experiment, the aggregates of CP-Cholesterol, CP-Lipids, CP-Cholesterol-Lipids, Cholesterol-Lipids, CO-Cholesterol and CO-Lipids are individually used in CPA for five cycles to assemble complexes followed by their thrombus generation.
The example depicted in FIG. 18 illustrates the dissolution of thrombi by PLG and u-PA. […] Both the clots and the dissolved complexes are further examined under microscope to confirm the visual examination (FIGS. 18a, b, c and d). The thrombus formed in the urine is also dissolved by the action of PLG and u-PA.

T2 sequence (P00747 97-810, one chain of several): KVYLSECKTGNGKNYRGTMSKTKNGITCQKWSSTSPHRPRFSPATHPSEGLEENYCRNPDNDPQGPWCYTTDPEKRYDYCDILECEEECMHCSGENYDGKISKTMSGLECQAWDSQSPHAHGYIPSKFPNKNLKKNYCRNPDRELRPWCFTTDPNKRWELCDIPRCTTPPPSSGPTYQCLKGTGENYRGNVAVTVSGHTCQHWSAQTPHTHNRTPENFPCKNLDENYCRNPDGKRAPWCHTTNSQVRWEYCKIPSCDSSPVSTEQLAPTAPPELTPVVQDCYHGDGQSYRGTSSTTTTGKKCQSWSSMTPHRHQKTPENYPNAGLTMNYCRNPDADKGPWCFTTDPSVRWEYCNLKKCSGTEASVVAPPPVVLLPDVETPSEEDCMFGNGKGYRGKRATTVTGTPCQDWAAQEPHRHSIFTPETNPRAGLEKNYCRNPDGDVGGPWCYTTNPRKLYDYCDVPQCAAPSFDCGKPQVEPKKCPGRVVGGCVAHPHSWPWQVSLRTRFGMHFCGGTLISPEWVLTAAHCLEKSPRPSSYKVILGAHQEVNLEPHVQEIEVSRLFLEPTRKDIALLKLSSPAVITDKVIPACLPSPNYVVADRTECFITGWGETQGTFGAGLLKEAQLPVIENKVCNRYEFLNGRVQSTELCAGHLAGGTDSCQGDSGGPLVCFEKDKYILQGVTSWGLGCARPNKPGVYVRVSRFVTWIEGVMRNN
T1 sequence (P00747 97-810, one chain of several): as above

t-PA: tissue-type plasminogen activator
Activation of PLG-bound complex [1]: activate the PLG-bound complex | Activation of PLG on PLG/BSA-attached complexes [2]: the inactive PLG is converted into active plasmin | Protein concentration of pre-assembled complexes after incubation [3]: show reduction in the protein concentration | Dissolution of thrombus, protein incubated separately [4]: did not show any dissolution
